Laboratory results reported in publication PMC2892007.
pKd: −log10 of the molar value.

How the values were obtained:
[1] = target: LigA LigAVar13 (Leptospira interrogans) (UniProt Q72MA6); experiment: ELISA
[2] = target: LigA LigAVar10 (Leptospira interrogans) (UniProt Q72MA6); experiment: ELISA
[3] = target: LigA LigAVar13 (Leptospira interrogans) (UniProt Q72MA6); experiment: SPR
[4] = target: LigA LigAVar12 (Leptospira interrogans) (UniProt Q72MA6); experiment: SPR
[5] = target: LigA LigAVar7'-8 (Leptospira interrogans) (UniProt Q72MA6); experiment: SPR
[6] = target: LigA LigAVar10 (Leptospira interrogans) (UniProt Q72MA6); experiment: SPR
[7] = target: LigA LigAVar11 (Leptospira interrogans) (UniProt Q72MA6); experiment: SPR
[8] = target: Alexa-488 labeled LigBCen2RW1073C (Leptospira; L. interrogans serovar Pomona is the only strain named); experiment: other fluorescence titration
[9] = target: LigAVar12 (Leptospira; L. interrogans serovar Pomona is the only strain named); experiment: SPR
[10] = target: LigBCen9 (Leptospira; L. interrogans serovar Pomona is the only strain named); experiment: SPR
[11] = target: LigBCen7'-8 (Leptospira; L. interrogans serovar Pomona is the only strain named); experiment: SPR
[12] = target: Gelatin-binding domain of human plasma fibronectin (human); experiment: ITC; GBD in the cell (1 ml), Lig protein in the syringe (250 µl), 25 injections of 10 µl, 25°C, Tris buffer with 100 µM CaCl2; independent binding model
[13] = target: Gelatin-binding domain of human plasma fibronectin (human); experiment: ELISA
[14] = target: Gelatin-binding domain of human plasma fibronectin (human); experiment: SEC-MALS; mixtures of Lig protein and GBD on Superose 6, 20 mM HEPES, 150 mM NaCl, pH 7.5

Fibronectin gelatin binding domain, sequence (P02751 306-608): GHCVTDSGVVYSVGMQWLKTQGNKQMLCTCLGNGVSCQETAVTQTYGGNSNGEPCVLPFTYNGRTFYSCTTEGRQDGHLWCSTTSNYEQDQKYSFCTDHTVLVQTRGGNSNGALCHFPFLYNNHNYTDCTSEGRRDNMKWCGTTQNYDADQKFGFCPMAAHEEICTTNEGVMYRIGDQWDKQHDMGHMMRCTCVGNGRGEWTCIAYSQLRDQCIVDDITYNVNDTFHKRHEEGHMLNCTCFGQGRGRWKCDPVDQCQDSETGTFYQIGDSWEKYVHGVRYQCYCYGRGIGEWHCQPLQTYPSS

Substance	1/n [12]	pKd [12]	dH [12] [kcal/mol]	stoichiometry N [12]	pKd [13]	stoichiometry N [14]	further results
Fibronectin gelatin binding domain (from UniProt P02751)							pKd [1]: 4.96; pKd [2]: 5.40; pKd [3]: 4.98; pKd [4]: 5.54; pKd [5]: 5.18; pKd [6]: 5.37; pKd [7]: 5.30
Gelatin-binding domain of human plasma fibronectin (domain or fragment)							pKd [8]: 5.71; koff [9]: 0.00678 s⁻¹; kon [9]: 2360 M⁻¹ s⁻¹; koff [10]: 0.00473 s⁻¹; kon [10]: 560 M⁻¹ s⁻¹; koff [11]: 0.00963 s⁻¹; kon [11]: 3570 M⁻¹ s⁻¹
LigAVar7'-9 (domain or fragment)	0.98 GBD: Lig	5.21	-29.2	1.02 Lig: GBD	5.18	0.97 GBD: Lig	
LigAVar7'-10 (domain or fragment)	1.96 GBD: Lig	5.36	-25.3	0.51 Lig: GBD	5.33	2 GBD: Lig	
LigAVar7'-11 (domain or fragment)	2.98 GBD: Lig	5.50	-22.1	0.335 Lig: GBD	5.49	2.96 GBD: Lig	
LigAVar7'-12 (domain or fragment)	3.92 GBD: Lig	5.62	-30.8	0.255 Lig: GBD	5.61	4.04 GBD: Lig	
LigAVar7'-13 (domain or fragment)	4.92 GBD: Lig	7.33	-94.9	0.203 Lig: GBD	7.32	5.05 GBD: Lig	
LigBCen7'-8 (domain or fragment)	1.01 GBD: Lig	5.64	-20.4	0.985 Lig: GBD		1.01 GBD: Lig	
LigBCen7'-9 (domain or fragment)	1.92 GBD: Lig	5.88	-21.1	0.52 Lig: GBD	5.86	2.05 GBD: Lig	
LigBCen7'-10 (domain or fragment)	1.96 GBD: Lig	5.87	-26.7	0.51 Lig: GBD	5.84	2 GBD: Lig	
LigBCen7'-11 (domain or fragment)	2.08 GBD: Lig	5.86	-29	0.479 Lig: GBD	5.83	1.98 GBD: Lig	
